Measurements taken from patent US20210087243A1.

Molecular target: T1, linear CGQKLVG-conjugated-BSA
T1 sequence (peptide, conjugated to BSA): CGQKLVG
Assay: SPR direct binding (MASS-1), linear peptide-BSA immobilised, supernatant flowed

binding response (RU): 7.7 RU
B1: 305-61 (7E9) (antibody, mouse IgG3, V domains shown)
VH: QVQLQQSGAELVRPGASVTLSCKASGYTFTDYEMHWVKQTPVHGLEWIGAIDPETGDTAYNQEFKGKATLTADKSSSTAYMELRSLTSEDSAVYYCTSPIYYDYDWFAYWGHGTLVTVSA
VL: DIVMSQSPSSLAVSAGEKVTMSCKSSQSLLNNRTRKNYLAWYQQKPGQSPKLLIYWASTRESGVPDRFTGSGSGTDFTLTISSVQAEDLAVYYCKQSYNLRTFGGGTKLEIKR
